Assay: soluble on expression in E. coli; label from the status in PepcDB or PDB records

Row | Sequence | soluble on expression in E. coli
1 | STSELDIFVGNTTLIDEDVYRLWLDGYSVTDAVALRVRSGILEQTGATAAVLQSDTMDHYRTFHMLERLLHAPPKLLHQLIFQIPPSRQALLIERYYAFDEAFVREVLGKKLSKGTKKDLDDISTKTGITLKSCRRQFDNFKRVFKVVEEMRGSLVDNIQQHFLLSDRLARDYAAIVFFANNRFETGKKKLQYLSFGDFAFCAELMIQNWTLGAVDSQMDDMDMDLDKEFLQDLKELKVLVADKDLLDLHKSLVCTALRGKLGVFSEMEANFKNLSRGLVNVAAKLTHNKDVRDLFVDLVEKFVEPCRSDHWPLSDVRFFLNQYSASVHSLDGFRHQALWDRYMGTLRGCLLRLYHD | soluble
2 | AHHHHHHGSVRIEVVDIEKPEGVEVIIGQGNFSIFTVDDLARALLTTVPGIKFGIAMNEAKPQLTRYTGNDPELEKLAAKNALKIGAGHVFVILMKNAYPINVLNTIKNHPAVAMVYGASENPFQVIVAETELGRAVIGVVDGKAATKIETEEQKKERRELVEKIGYKID | not soluble
3 | MSLSRLVVVSNRIAPPDEHAASAGGLAVGILGALKAAGGLWFGWSGETGNEDQPLKKVKKGNITWASFNLSEQDLDEYYNQFSNAVLWPAFHYRLDLVQFQRPAWDGYLRVNALLADKLLPLLQDDDIIWIHDYHLLPFAHELRKRGVNNRIGFFLHIPFPTPEIFNALPTYDTLLEQLCDYDLLGFQTENDRLAFLDCLSNLTRVTTRSAKSHTAWGKAFRTEVYPIGIEPKEIAKQAAGPLPPKLAQLKAELKNVQNIFSVERLDYSKGLPERFLAYEALLEKYPQHHGKIRYTQIAPTSRGDVQAYQDIRHQLENEAGRINGKYGQLGWTPLYYLNQHFDRKLLMKIFRYSDVGLVTPLRDGMNLVAKEYVAAQDPANPGVLVLSQFAGAANELTSALIVNPYDRDEVAAALDRALTMSLAERISRHAEMLDVIVKNDINHWQECFISDLKQIVPRSAESQQRDKVATFPKLAEGGSHHHHHH | soluble
4 | MGSDKIHHHHHHMCQRPPARRATGPFPTLTASRAAARACTVTFQPNCARPCVRQRPEAAIDMAKTYNPAHADISPAARLAALGAGEAVDLGEYRVIRATHQDRPVFFAVRNAMDAIQKHHIEGAFYETEELDIIRRHFAPGETFIDLGANVGNHALYVAMYLEPAKVLCVEPNSLAYENLLANIVLNGVEETFDLSWLGFGVSCNVGDGFGITHWVHNLGGGKLIPRDGGTISLRSGDDILADTKADFIKIDVEGMEMDVLTSLENTVARDRPKIFVEVDNENRDAVLAWVDTHGYTTHETFKRYRDNENFLFVPESESET | not soluble
5 | MGEAPAVLVDHPENGHSNGVCVKSEPENTEITVDVGDRIFLIGGTHERNNFSIGVQIYDKISNNWFSPIVLGTGPKPSKGYSAFVLEQGRILVIKKGSPRNDSIWFLEVDSPYVREQKKLLRKEVVAWSKGVRGNAEKPIVISGPSGVGKGTLISMLMKEFPSMFGFSVSHTTRSPRSMEMDGVHYHFADKKVMEKEIKDGKFLEFASVHGNLYGTSIESVEAVTDSGKRCILDIDVQGARSVRASSLDAIFIFVCPPSMKELEDRLRARGTETEEQIQKRLRNAEAEIKEGISSGIFGLILYNDNLEECYKKLKNLLGLDGLAHVNGVEIEGINLPIEYAVSKMEDKIIIQETGKETRNKIVVDISSLNGGAPGRTRGILVDAIKF | soluble
6 | MGSDKIHHHHHHMTLPEPDFIARDPAVITAELIAQYEQMSGKTLYPAQVERLLIDLMAYRETLVRVGIQEAAKQNLVAYARAPMLDYLGQLVGVTRLPAQPARATLRFTLDAPLASPLPIPAGTRVESGDGVVAFATDEAATLPAGRTSLEIAATCQDAGSAGNGWQPGQIVNLMDDLGDMDVVVTNTAVTAGGVDEEDDERLRERIMLAPESFSNAGSRQAYRFHALRAHQSIVDVAVLSPTPGVVQLYPLLKTGLPDANMLALVQATCSAERVRPLTDYVEALAPTAIDYAIDVRLTVYPDVDGKAVKTQAQERLQAYAAERAGALGRDIVPSQIIAAVQVPGVYQATVASPGLQQVPEHGWARCTGVSVTLEGVSHG | not soluble
7 | MSAPAAAPKHPGKVFLDPSEVADHLAEYRIVDCRYSLKIKDHGSIQYAKEHVKSAIRADVDTNLSKLVPTSTARHPLPPCAEFIDWCMANGMAGELPVLCYDDECGAMGGCRLWWMLNSLGADAYVINGGFQACKAAGLEMESGEPSSLPRPATHWPFKTAFQHHYLVDEIPPQAIITDARSADRFASTVRPYAADKMPGHIEGARNLPYTSHLVTRGDGKVLRSEEEIRHNIMTVVQGAGDAADLSSFVFSCGSGVTACINIALVHHLGLGHPYLYCGSWSEYSGLFRPPIMRSIIDDYGMCMQMQTPSLGDNPKANLDTMTLKVDGAPCERPDAEVQSAATHLHAGEAATVYFKSGRVVTIEVPVVPNLEA | soluble
8 | MKMLTVENLSKSYGEKPLFDGLSFSIAEGQRAGIIGVNGTGKSTLLKIIAGAEIPDTGDMTHSRGYTISYLSQQPEFDEQLTVLEQVFHGDTPLIRLLRDYEKALLHIEKDPSNEKVQEQLFAVQQRMDAMSVWEANANAKSLLTKLGITDFTATVGNLSGGQKKRIAMAQCFIETPDLLILDEPTNHLDHETVEWLEEYLARYTGAVLLVTHDRYFLDRVTNRIFELDNGKLYSYEGNYSTFLEAKALREEQELAQESKRQNLYRRELAWIRRGAKARSTKQKARIQRFEELKGQEGPAAKQSVDIALSGSRLGKKVLELKDVTKKFGDKTVLNNFNHIVKPGDRIGIIGANGSGKSSLLNMLAGKISPDSGEIEVGQTVKIAYYTQENEEMNLNQRMIEYIKEIAEVIHTTDGKVIGASQMLERFLFPPHSHGTPLGKLSGGERRRLYLLRILMGEPNVLLLDEPTNDLDPQTLTVLEDYLEDFSGVVLTVSHDRYFLDKVVDELFIFTGEGEVREFLGSYTDYLEMEKTRELIEKAEVQKEKKVVEEAPKQQRKRKLSYNEQREWETIEDTIAELEEKLESIGEELANVGSDFTKAQELSEAQQKTEEELEKTMERWSELSDIVEGLK | not soluble
9 | MTRILPCLFLVLLAAAPLLANPANPLNLKKHHGVFCDVCKALVEGGEKVGDDDLDAWLDVNIGTLCWTMLLPLHHECEEELKKVKKELKKDIENKDSPDKACKDVDLC | not soluble
10 | MLVCNPYEVVIHGTTSSGKIFRPSDWAERLCGILSSFTKDHRLSYSKWVRPILVDNIRCVAVDKKLETDNPQMFRFLMDFAADNDLRVIDCKALLEEREQGGQNNPADEHVMLAQAIEEKHAAEKAQEQTASGASYVLREIGADDTATAFAALSVLRSALTDINRFTEQINKVQRPQGYRLLGIFEEGKHNAVAVCGFREACTLASGRHIHIDDIVTLPQSRRKGYASRLLEEVRKIGAETGVTKIHLNVHVNHDRADAHRLYFKNGFEICAYHFRCDPK | not soluble
11 | MPRRRGSSSSSSAAGGSGGGGGFGFSSLRRELHLHNFFRTSSPSASSTSRTPPAALPPRTSAVTIPGSNHKLTSSASSYHPPRELTVSTFSAGSATAADGLGGAHLTPSLSSSVHARRESFLYRASDDLREASSLRPVSRASSIASNEHGYVILYIFL | not soluble
12 | MLRTYFPEVVLFLHAFPLNKEMYRYQFCAFEEEGIPYVALDYPGFGDAPNLPGEYTVERLTDYVVNELRKFRVKKVIPIGDSMGGYIMFDMWRRYREMIKGFVFVATRAEADTEEGKKARYALIEKVQKEGKEFLIEAMLENQTSPATKKDENKMRTLRCIMEKATREGIVKTLKALAERKDNTDLLPSIDVPTLVIAGKDDERVTPPEIVKKIAEGIKGAKYYELENSAHLPPFENPEKFNEVVIPFVKDLLKTP | soluble
13 | MSLTDNKTVPNGAPILYIVPTPIGNLGDITQRALDVLASVDMIAVEDTRHTGKLLAHFNISTKTFALHDHNEQQKAQVLVDKLLSGLSIALVSDAGTPLISDPGYHLVTQCRQAGVKVVPLPGPCAVITALSASGLPSDSFSFEGFLPAKSKARKDKLLEIAKVSRTCIFYESPHRICESLQDMLDVLGGEREVVLARELTKTFETIQGMPLAELITWIAEDDNRKKGEMVLLVHGYRDAGEQQLPDEALRTLTILTKELPLKKAAALVAEIHQLKKNALYKWGLENLGEEGHHHHHH | soluble
14 | MHKKADQPFMKEKRGSKLTVRAMPIQSKNLQISGICDVVEFVQDSEGIELSGVSGSYKAFPVEYKRGKPKKGDEDIVQLVAQAMCLEEMLVCRIDKGYLFYNEIKHRVEVPITDALRDKVVQMAKEMHHYYENRHTPKVKTGPFCNNCSLQSICLPKLMNKRSVKRYIEGRLSELEHHHHHH | not soluble
15 | MRIHSAGHSLPAPGPSVETTEKAVQSSSAQNPASCSSQTERPEAGSTQVRPNYPYSSVKTRLPPVSSTGQAISDTPSSLPGYLLLRRLDRRPLDEDSIKALVPADEALREARRALPFGRGNIDVDAQRTHLQSGARAVAAKRLRKDAERAGHEPMPENDEMNWHVLVAMSGQVFGAGNCGEHARIASFAYGALAQESGRSPREKIHLAEQPGKDHVWAETDNSSAGSSPIVMDPWSNGAAILAEDSRFAKDRSAVERTYSFTLAMAAEAGKVARETAENVLTHTTSRLQKRLADQLPNVSPLEGGRYQPEKSVLDEAFARRVSDKLNSDDPRRALQMEIEAVGVAMSLGAEGVKTVARQAPKVVRQARSVASSKGMPPRR | not soluble
16 | MAHHHHHHMAPGVIPTVFRSERDREWAAQRFNYKKGSDDEERVARKRLLFARDRVHLPDDTVVETIRSPTEQLEELRALREHPPMHLLSEQLNSIAEESHRYAAALAAAAAAQPADPKDVASPASLRSDAAATSSLDGVALPPLPGAAAVVSSPPQVEIQFEDRSLFATAAILFRDRDDRVVRAMRFIGACGMVWKEVA | soluble
17 | GNSITSATDEQPHIGNYRLQKTIGKGNFAKVKLARHVLTGREVAVKIIDKTQLNPTSLQKLFREVRIMKILNHPNIVKLFEVIETEKTLYLVMEYASGGEVFDYLVAHGRMKEKEARAKFRQIVSAVQYCHQKYIVHRDLKAENLLLDGDMNIKIADFGFSNEFTVGNKLDTFCGSPPYAAPELFQGKKYDGPEVDVWSLGVILYTLVSGSLPFDGQNLKELRERVLRGKYRIPFYMSTDCENLLKKLLVLNPIKRGSLEQIMKDRWMNVGHEEEELKPYTEPDPDFNDTKRIDIMVTMGFARDEINDALINQKYDEVMATYILLGRK | soluble
18 | MSLTTLNIGLILPDVLGTYGDDGNALVLRQRARMRGINAEIQRVTLDDAVPSTLDLYCLGGGEDTAQILATEHLTKDGGLQTAAAAGRPIFAVCAGLQVLGDSFRAAGRVIDGLGLIDATTVSLQKRAIGEVETTPTRAGFTAELTERLTGFENHMGATLLGPDAEPLGRVVRGEGNTDVWAASENTDDQRQQFAEGAVQGSIIATYMHGPALARNPQLADLMLAKAMGVALKDLEPLDIDVIDRLRAERLAEGHHHHHH | soluble
19 | MGSDKIHHHHHHMTRFRSTLPQVNGTTLLTDSGLETTLIFHDGLDLPCFAAYPLMETAEGRAVLRDYFQRHLAIASERSAGFLLESPTWRASRDWGAQLGHGPDDLARLNNDAIAMLVDLRDDATGVGPIVISGNIGPRGDGYVADAAMTADEAEDYHAEQIGWFAQSEVDLATAVTLSTVAEGVGVIRAAHRVDLPVVVSFTTETDGRLPDGTPLGRAIEQTDALTDGAAAYFMVNCAHPDHFRPVLDTGTAWLNRIGGVRANASRMSHAELDEAETLDAGDPAELGRDYRDLRQILPNLTVIGGCCGTDHRHIEAMADRCLGHNAA | not soluble
20 | FAEDPSPYVLLDRDLTMIWANAAYLRATGLARDEVVGRRMFDVFPAEAESIPDQMLRASLRRAVEQGRPDHLPLIPYPIRNQDGRMEERFWSATNTPIKDAEGHVEFILQNTNDIT | not soluble
